In patent US11213590B2, “SSTR-targeted conjugates and particles and formulations thereof” (priority 2016, dated 2022):
Several values for one entry are separate records, joined by “and”; a condition that tells them apart may be missing. Equal values may be shown once. Read-outs that look alike come from different tables or passages of the source. Marks after values point to notes of the source that are not given here.

Legend:
[1] = Drug substance stability study; type: physicochemical
Protocol: Stability studies were carried out for Conjugate 57. The tests included in the stability protocols ensure that changes relating to appearance, strength, purity, and moisture of the drug substance are monitored through-out the shelf life of the drug substance. Endotoxins are also monitored by annual inclusion of tests for these attributes in the stability program.
In another stability study, the following conditions were tested: 5° C.±3° C. under nitrogen and −20° C.±5° C. under nitrogen. Nitrogen was selected to prevent oxidation and assure control atmosphere during storage.

[2] = tested on: HCC-33; assay: Inhibition of proliferation, CellTiter-Glo, HCC-33; type: cell-based, human
Protocol: (§1) The purpose of this study was to determine the receptor-dependent inhibition of proliferation in vitro by the somatostatin targeting conjugate Conjugate 57 and determine the sensitivity to DM1 in the human SSTR2 expressing cancer cell lines: NCI-H69, NCI-H82, NCI-H727 and HCC-33. Cells were incubated with Conjugate 57 for 6 hours, in the presence or absence of an excess of octreotide, a somatostatin analogue. A three-fold serial dilution of Conjugate 57 was used for a total of ten concentration points. After treatment, cells were washed, incubated for an additional period of time, either 72 or 96 hours and proliferation was measured using the CellTiter-Glo® Luminescent Cell Viability Assay. The IC50 of Conjugate 57 was used to determine the inhibiting activity in proliferation assays. To determine DM1 sensitivity a similar method to the Conjugate 57 assay was employed with the additional incubation time points of 30 minutes, 1, 2, and 4 hours and the exclusion of the pre-treatment with octreotide. DM1 effect from the most to least sensitive cell line was determined to be: NCI-H69>HCC-33>NCI-H82>NCI-H727 (Table 5B). […] The addition of excess octreotide (100 μM) competes with Conjugate 57 for binding to the SSTR2 receptor. […] In the NCI-H69 experiments, pre-incubation with an excess of octreotide modestly diminished the activity of Conjugate 57 by 1.6 and 2.4 fold, depending on the assay conditions. In the HCC-33 cell line, activity of Conjugate 57 was 3.2 (±1.4) times higher when dosed alone, compared to when the cells were pre-incubated with octreotide. The small but measureable changes in Conjugate 57 activity in the presence of excess octreotide seen in the NCI-H69 and HCC-33 cell lines supports the receptor dependence of the Conjugate 57 antiproliferative effect seen in vitro. In summary, although all the cell lines tested in these experiments express the SSTR2 protein, they have different levels of sensitivity to the Conjugate 57 conjugate of which the DM1 sensitivity may be a contributing factor.

[3] = molecular target: SSTR3 (Homo sapiens, UniProt P32745); assay: Affinity profile (half-maximal inhibitory concentration), SSTR3; type: binding
Sequence of SSTR3 (P32745 whole entry): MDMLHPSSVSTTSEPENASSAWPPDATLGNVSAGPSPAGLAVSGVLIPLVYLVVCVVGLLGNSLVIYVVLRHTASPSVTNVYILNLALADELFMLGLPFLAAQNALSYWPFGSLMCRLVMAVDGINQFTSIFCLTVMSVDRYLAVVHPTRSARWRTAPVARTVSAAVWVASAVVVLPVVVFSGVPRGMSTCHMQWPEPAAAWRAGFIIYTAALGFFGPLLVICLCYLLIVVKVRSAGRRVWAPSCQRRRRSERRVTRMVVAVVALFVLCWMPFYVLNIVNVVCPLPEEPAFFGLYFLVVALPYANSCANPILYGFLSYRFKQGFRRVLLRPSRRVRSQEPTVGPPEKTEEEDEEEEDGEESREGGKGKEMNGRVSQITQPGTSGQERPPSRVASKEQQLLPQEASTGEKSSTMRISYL
From the text: DOTATE, also known as DOTA-TATE or DOTA-octreotate, comprises an amide of the acid DOTA, which connects a radionuclide and (Tyr3)-octreotate, a derivative of octreotide. DOTATOC, also known as edotreotide, SMT487, or (DOTA^0-Phe^1-Tyr^3)octreotide, is also an octreotide derivative which can be bound to radionuclides for diagnosis and treatment.

[4] = tested on: NCI-H727; assay: cells; type: cell-based, human; conditions: for IC50: assay duration 72 h
Protocol: as §1

[5] = tested on: NCI-H69; assay: cells; type: cell-based, human; conditions: for IC50: 5,000 cells/well
Protocol: as §1

[6] = tested on: NCI-H82; assay: cells; type: cell-based, human; conditions: for IC50: assay duration 72 h
Protocol: as §1

[7] = molecular target: SSTR2 (Homo sapiens, UniProt P30874); assay: SSTR2 receptor internalization in H524-MD tumor xenograft (IHC staining); type: in vivo; set-up: highly expressing SSTR2 positive (SSTR2+) tumor xenograft; endogenous in cells
Sequence of SSTR2 (P30874 whole entry): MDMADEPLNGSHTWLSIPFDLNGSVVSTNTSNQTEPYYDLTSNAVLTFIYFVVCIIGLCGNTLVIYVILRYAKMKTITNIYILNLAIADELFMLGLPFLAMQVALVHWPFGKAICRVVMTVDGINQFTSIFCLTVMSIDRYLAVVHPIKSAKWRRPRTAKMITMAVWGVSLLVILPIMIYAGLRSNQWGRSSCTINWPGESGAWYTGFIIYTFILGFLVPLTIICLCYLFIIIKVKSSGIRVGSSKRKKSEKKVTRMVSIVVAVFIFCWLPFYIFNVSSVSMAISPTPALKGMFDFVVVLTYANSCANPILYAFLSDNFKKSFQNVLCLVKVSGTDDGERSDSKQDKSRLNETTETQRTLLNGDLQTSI
Protocol: SSTR2 receptor internalization was studied using Conjugate 57 in a highly expressing SSTR2 positive (SSTR2+) tumor xenograft: H524_MD tumor xenograft. Vehicle (0.1% Solutol/5% Mannitol), Conjugate 57 at 2 mg/kg, scrambled control (BT-984) at 2 mg/kg, and Octreotide at 1.4 mg/kg (ligand alone) were given to SSTR2+ H524-MD tumor xenografts (n=3/group). Timepoints—0 hr (Vehicle), 15 mins, 1 hr, 4 hr, 24 hr and 72 hrs. SSTR2 scoring was done by immunohistochemistry (IHC) staining.

[8] = Lot 1, 5° C. ± 3° C. study, Initial
[9] = Lot 1, −20° C. ± 5° C. study, Initial
[10] = Lot 1 stored at 5° C. ± 3° C., 3 Month
[11] = Lot 1 stored at −20° C. ± 5° C., 3 Month
[12] = Lot 2, 5° C. ± 3° C./Ambient RH under nitrogen, Initial
[13] = Lot 2, 25° C. ± 2° C., 60% RH ± 5% RH study, Initial
[14] = Lot 2 stored at 5° C. ± 3° C./Ambient RH under nitrogen, 1 Month
[15] = Lot 2 stored at 5° C. ± 3° C./Ambient RH under nitrogen, 1 Month, preliminary identification
[16] = Lot 2 stored at 25° C. ± 2° C., 60% RH ± 5% RH, 3 Month
[17] = 5,000 cells/well, excess octreotide (100 μM), read-out: Inhibition of Proliferation IC50 With Octreotide
[18] = 5,000 cells/well, read-out: Inhibition of Proliferation IC50 Without Octreotide
[19] = 10,000 cells/well, excess octreotide (100 μM), read-out: Inhibition of Proliferation IC50 With Octreotide
[20] = 10,000 cells/well, read-out: Inhibition of Proliferation IC50 Without Octreotide

With `COc1cc2cc(c1Cl)N(C)C(=O)C[C@H](OC(=O)[C@H](C)N(C)C(=O)CCSSC[C@H](NC(=O)[C@@H]1CSSC[C@H](NC(=O)[C@H](N)Cc3ccccc3)C(=O)N[C@@H](Cc3ccc(O)cc3)C(=O)N[C@H](Cc3c[nH]c4ccccc34)C(=O)N[C@@H](CCCCN)C(=O)N[C@@H]([C@@H](C)O)C(=O)N1)C(N)=O)[C@]1(C)O[C@H]1[C@H](C)[C@@H]1C[C@@](O)(NC(=O)O1)[C@H](OC)/C=C/C=C(\C)C2` [Conjugate 57] as the compound, how does the degradation on storage ([1]; 5° C.±3° and 25° C./60% Relative Humidity (RH), 3 months) read?
Its degradation on storage is “Significant degradation”.

And the Appearance [1, 8]?
The Appearance was “White powder”.

And the Assay [1, 8]?
Its Assay is 88.2%.

And the “Moisture Content by KF” value [1, 8]?
Its value is 4.3%.

What about the “Purity (RP-HPLC)” value [1, 8] of the same compound?
Its value is 98.0%.

What about the “Total Impurities” value [1, 8] of the same compound?
Its value is 1.9%.

What about the Appearance [1, 9] of the same compound?
Its Appearance is “White powder”.

And the Assay [1, 9]?
The Assay was 88.2%.

And the “Moisture Content by KF” value [1, 9]?
The value was 4.3%.

What about the “Purity (RP-HPLC)” value [1, 9] of the same compound?
The value was 98.0%.

And the “Total Impurities” value [1, 9]?
The value was 1.9%.

And the Appearance [1, 10]?
Its Appearance is “White powder”.

And the Assay [1, 10]?
The Assay was 88.2%.

And the “Purity (RP-HPLC)” value [1, 10]?
Its value is 97.4%.

What about the “Total Impurities” value [1, 10] of the same compound?
The value was 2.5%.

What about the Appearance [1, 11] of the same compound?
The Appearance was “White powder”.

What about the Assay [1, 11] of the same compound?
The Assay was 90.9%.

What about the “Purity (RP-HPLC)” value [1, 11] of the same compound?
Its value is 98.0%.

What about the “Total Impurities” value [1, 11] of the same compound?
Its value is 1.9%.

What about the Appearance [1, 12] of the same compound?
The Appearance was “White powder”.

What about the Assay [1, 12] of the same compound?
The Assay was 97.0%.

What about the “Moisture Content by KF” value [1, 12] of the same compound?
Its value is 2.1%.

And the “Purity (RP-HPLC)” value [1, 12]?
Its value is 98.0%.

What about the Total Impurities [1, 12] of the same compound?
Its Total Impurities is 2.0%.

And the “Starting Materials: BT-976 content” value ([1]; Lot 2, 5° C. ± 3° C./Ambient RH under nitrogen, Initial, preliminary identification by marker retention time)?
Its value is 0.05%^a.

What about the Appearance [1, 13] of the same compound?
Its Appearance is “White powder”.

And the Assay [1, 13]?
Its Assay is 88.2%.

What about the “Moisture Content by KF” value [1, 13] of the same compound?
Its value is 4.3%.

And the “Purity (RP-HPLC)” value [1, 13]?
The value was 98.0%.

And the “Total Impurities” value [1, 13]?
The value was 1.9%.

What about the Appearance [1, 14] of the same compound?
Its Appearance is “White powder”.

And the Assay [1, 14]?
Its Assay is 94.6%.

What about the “Moisture Content by KF” value [1, 14] of the same compound?
The value was 1.9%.

What about the “Purity (RP-HPLC)” value [1, 14] of the same compound?
Its value is 96.6%.

What about the Total Impurities [1, 14] of the same compound?
Its Total Impurities is 3.4%.

What about the “Starting Materials: BT-976 content” value [1, 15] of the same compound?
The value was 0.05% a.

And the “Starting Materials: DM1 content” value [1, 15]?
Its value is 0.09% a.

And the Appearance [1, 16]?
The Appearance was “White powder”.

What about the Assay [1, 16] of the same compound?
Its Assay is 78.7%.

What about the “Purity (RP-HPLC)” value [1, 16] of the same compound?
Its value is 90.8%.

What about the “Total Impurities” value [1, 16] of the same compound?
The value was 9.2%.

And the “change in purity on storage” value ([1]; after 3 months at −20° C.±5° C.)?
Its value is “No significant change in purity”.

What about the time stable ([1]; at −20° C.) of the same compound?
The time stable was “at least 3 months”.

And the “activity dosed alone compared to pre-incubation with octreotide” value [2]?
Its value is 3.2 (±1.4) times higher.

And the IC50 ([2]; 5,000 cells/well, assay duration 72 h (repeat experiments), read-out: Inhibition of Proliferation IC50 Without Octreotide)?
Its IC50 is 230 nM.

And the IC50 [3]?
Its IC50 is 58 nM.

And the IC50 [4, 17]?
The IC50 was 810 nM.

And the IC50 [4, 18]?
The IC50 was 3240 nM.

And the IC50 [4, 19]?
Its IC50 is 1900 nM.

And the IC50 [4, 20]?
Its IC50 is 2690 nM.

What about the “activity in the presence of excess octreotide” value ([4]; octreotide 100 μM) of the same compound?
Its value is “not decreased”.

What about the IC50 ([5]; assay duration 72 h, 6 h treatment, read-out: Inhibition of Proliferation IC50 Without Octreotide) of the same compound?
The IC50 was 108 nM.

What about the IC50 ([5]; assay duration 72 h, excess octreotide (100 μM), read-out: Inhibition of Proliferation IC50 With Octreotide) of the same compound?
Its IC50 is 258 nM.

And the IC50 ([5]; assay duration 96 h, 6 h treatment, read-out: Inhibition of Proliferation IC50 Without Octreotide)?
The IC50 was 167 nM.

And the IC50 ([5]; assay duration 96 h, excess octreotide (100 μM), read-out: Inhibition of Proliferation IC50 With Octreotide)?
The IC50 was 271 nM.

And the “decrease of activity by pre-incubation with excess octreotide” value ([5]; depending on the assay conditions)?
Its value is 1.6 fold and 2.4 fold.

What about the IC50 [6, 17] of the same compound?
Its IC50 is 128 nM.

And the IC50 [6, 18]?
Its IC50 is 106 nM.

What about the IC50 [6, 19] of the same compound?
The IC50 was 1290 nM.

What about the IC50 [6, 20] of the same compound?
Its IC50 is 1050 nM.

And the “activity in the presence of excess octreotide” value ([6]; octreotide 100 μM)?
The value was “not decreased”.

And the “SSTR2 receptor internalization/distribution in vivo” value ([7]; 2 mg/kg, H524-MD tumor xenograft)?
Its value is “significant receptor internalization/distribution”.

And the “SSTR2 receptor internalization, intensity of staining analysis” value ([7]; 2 mg/kg, versus BT-984 and naïve at 1 hr, 4 hr and 72 hours)?
The value was “significantly different results”.

And the “SSTR2 internalization, distribution of staining analysis” value ([7]; 2 mg/kg, versus BT-984 and naïve at 4 hr, 24 hr and 72 hours)?
The value was “significantly different results”.

What about the “SSTR2 internalization compared with octreotide alone” value ([7]; Conjugate 57 2 mg/kg, octreotide 1.4 mg/kg) of the same compound?
The value was “more SSTR2 internalization than octreotide alone”.
